Reference: patent US20040043420A1, “Method of identifying conformation-sensitive binding peptides and uses thereof” (priority 2003, published 2004)

What was measured:
[1] = molecular target: T1, androgen receptor (Homo sapiens, UniProt P10275); type: cell-based; parameters: expressed in transfected cells
T1 sequence (P10275 1-920): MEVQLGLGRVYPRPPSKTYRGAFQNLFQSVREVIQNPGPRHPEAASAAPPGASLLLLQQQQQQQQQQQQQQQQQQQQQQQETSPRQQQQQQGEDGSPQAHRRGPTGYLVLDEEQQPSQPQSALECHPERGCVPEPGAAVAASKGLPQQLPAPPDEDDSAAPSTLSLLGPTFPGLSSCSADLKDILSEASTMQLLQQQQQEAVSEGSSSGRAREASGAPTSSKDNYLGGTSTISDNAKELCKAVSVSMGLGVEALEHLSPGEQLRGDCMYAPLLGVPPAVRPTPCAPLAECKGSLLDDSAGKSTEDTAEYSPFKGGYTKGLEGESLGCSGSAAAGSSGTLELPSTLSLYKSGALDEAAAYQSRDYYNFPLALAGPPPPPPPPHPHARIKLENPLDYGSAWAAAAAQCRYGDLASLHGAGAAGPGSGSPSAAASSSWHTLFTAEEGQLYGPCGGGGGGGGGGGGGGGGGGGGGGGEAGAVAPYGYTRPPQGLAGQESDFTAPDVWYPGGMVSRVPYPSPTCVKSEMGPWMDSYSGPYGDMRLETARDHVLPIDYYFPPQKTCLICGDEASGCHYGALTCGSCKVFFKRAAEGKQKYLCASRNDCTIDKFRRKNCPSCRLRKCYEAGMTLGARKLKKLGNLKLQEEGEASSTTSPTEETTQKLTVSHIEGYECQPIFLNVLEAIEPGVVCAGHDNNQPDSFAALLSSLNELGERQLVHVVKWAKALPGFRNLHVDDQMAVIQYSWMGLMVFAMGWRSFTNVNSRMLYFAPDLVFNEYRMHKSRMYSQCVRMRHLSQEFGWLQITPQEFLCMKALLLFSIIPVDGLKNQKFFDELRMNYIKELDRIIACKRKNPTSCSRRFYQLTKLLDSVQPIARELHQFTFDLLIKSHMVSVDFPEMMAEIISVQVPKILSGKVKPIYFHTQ
Source text: We used a mammalian two-hybrid system to determine specificities of the AR-binding peptides previously identified, through screening of the aforementioned yeast library, as ligand-dependent in their binding activity. Ligand was provided to the cells so the interaction could be observed. The human hepatoma cell line, Huh-7, was used as the recipient of two-hybrid vectors, pM and pVP16 (Clontech) (FIGS. 6A and 6B), containing fusions with peptide and AR, respectively. According to Clontech literature, the Clontech vectors pM and VP16 generate fusions of protein X with the GAL4 DNA-BD and fusions of protein Y with the VP16AD, in the Mammalian MM Two-Hybrid Assay Kit (#K1602-1). (Note: pM and VP16 contain unique cloning sites in the same order and reading frame as the DNA-BD and AD, respectively, vectors in the yeast […] Two-Hybrid Systems.) A third vector, pG5CAT, provides a CAT reporter gene under the control of a GAL4-responsive element and minimal promoter of the adenovirus E1b. The three vectors are cotransfected into any suitable mammalian host cell line by standard methods. The interaction between proteins X and Y is then assayed by measuring CAT gene expression by any standard method. In the absence-of activation (i.e., no protein-protein interaction), the minimal E1b promoter will not express significant levels of CAT.
Briefly, cells are seeded in a 24-well culture plate to a density of 50-80% confluence in phenol red-free media containing charcoal-dextran stripped fetal bovine serum (10%). Following incubation overnight, cells are transfected with plasmids pM-peptide, pVP16-AR, pCMV-b-gal, and p5XGAL-Luc3 DNAs using lipofectamine 2000 (LifeTech) according to the manufacturer's protocol. Transfections are allowed to proceed for 6 hours and the transfection media is aspirated and replaced with recovery media for 18 hours. Following the recovery period, cells are treated with compound for 24 hours prior to cell harvesting. Cells are washed with PBS and then lysed using the lysis buffer from the Galacto-Light Plus β-galactosidase assay kit (Tropix). Assays for luciferase and β-galactosidase were performed as described by the manufacturer. Peptide/AR interactions are described in terms of the luciferase activity normalized for transfection efficiency using β-galactosidase activity (see FIG. 4A). Two types of useful information arose from these methods: 1) we generated a panel of useful peptide probes to analyze the conformational state of AR, and 2) we “fingerprinted” AR modulators with respect to AR conformation (FIG. 4B). […] FIG. 4B is the converse of 4A. It compares the ability of six ligands (DHT, MPA, CYP, RU486, FLUT and DHEAs to interact with AR in the presence of each of four peptides (D30, 5G11, B8H3 and […]). Thus, it is a “fingerprint” of each of the six ligands using a four peptide panel. (Note that “1269” and D30″ refer to the same peptide.)

[2] = molecular target: T1, androgen receptor; type: cell-based; parameters: expressed in transfected cells; remark: listed apart in the source
[3] = molecular target: T1, androgen receptor; assay: Yeast two-hybrid screening of unbiased X15 peptide library, ligand-induced β-galactosidase activity (FIG. 3, Table 503); type: cell-based; parameters: expressed in transfected cells; host or cells: Saccharomyces cerevisiae PJ69-4α
Source text: Our library contained predominantly 15 random amino acid residues/peptide in order to identify motifs that might interact with nuclear receptor domains. If ligand is provided to the cells, one can screen for peptides that interact with the ligand-bound receptor. […] Included at the ends of the oligonucleotide were the synthetic restriction endonuclease cleavage sites, EcoRI or Mfe I (5′ end) and Sal I (3′ end). Oligonucleotides were annealed, then cleaved with excess restriction endonuclease and purified on agarose gels. The purified set of oligonucleotides was subcloned as an in-frame carboxy-terminal fusion to a Gal4 DNA binding domain (plasmid vector pMA424 derivative). […] The transformation mix was divided and grown on plates of selective media containing ligand and 25 mM 3-aminotriazole at 30° C. until colonies appeared in 3-7 days. […] Dihydrotestosterone (DHT) and medroxyprogesterone (MPA) were added to the media at 100 nM to identify peptides that interact with the receptor in the presence of ligand. After colonies appeared they were picked and dispersed into individual wells of a 96-well plate containing rich media (YPD).
To determine ligand dependence, two microliter aliquots were removed from the cell suspension, and arrayed and spotted onto each of two rectangular agar plates, one with 100 nM ligand and one without ligand. Growth was monitored daily.
A secondary test of ligand dependent activation was performed using the integrated GAL4-driven lacZ gene. Cell suspensions of the initial positive clones were diluted 20-fold into 20 microliters of rich media in a microplate and grown overnight at 30° C. in the presence and absence of ligand. Microplates were centrifuged for 5 minutes at 3000 rpm in a swinging table top centrifuge to pellet the yeast cells, and the overlying media was aspirated. […] An OD650 density determination was made to normalize the β-galactosidase activity. β-galactosidase activity was monitored following the addition of buffer containing chlorophenol red-1-galactopyranoside (CPRG) (Boehringer Mannheim) substrate at a final concentration of 0.5 mM. […] The maximum slope value of this measurement was normalized to cell density from the initial OD650 value, and the relative ligand dependence of β-galactosidase was determined by comparing the values plus and minus ligand.
In FIG. 3, all of these ligands were tested. The plasmids from true positives were extracted using standard yeast extraction protocols and re-transformed to verify the positive phenotype.

[4] = molecular target: T2, ER β, Q92731; assay: peptide probe binding to ERβ, all modulators
T2 chain: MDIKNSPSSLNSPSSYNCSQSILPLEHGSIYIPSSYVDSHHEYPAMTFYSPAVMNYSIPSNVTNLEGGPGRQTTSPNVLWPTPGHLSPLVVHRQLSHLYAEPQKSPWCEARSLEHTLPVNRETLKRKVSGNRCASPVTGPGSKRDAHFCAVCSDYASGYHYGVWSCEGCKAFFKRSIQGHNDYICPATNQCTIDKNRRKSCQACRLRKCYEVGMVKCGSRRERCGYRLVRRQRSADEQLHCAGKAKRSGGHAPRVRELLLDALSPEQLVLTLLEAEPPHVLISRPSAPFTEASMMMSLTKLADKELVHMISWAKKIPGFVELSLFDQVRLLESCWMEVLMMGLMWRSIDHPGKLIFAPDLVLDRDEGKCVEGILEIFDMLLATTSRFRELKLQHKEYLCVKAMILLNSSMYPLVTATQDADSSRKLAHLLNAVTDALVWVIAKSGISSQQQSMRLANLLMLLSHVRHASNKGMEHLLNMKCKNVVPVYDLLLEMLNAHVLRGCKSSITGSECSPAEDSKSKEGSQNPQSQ

[5] = molecular target: T2, ER β, Q92731; assay: phage ELISA, raloxifene 1 µM
[6] = molecular target: T2, ER β, Q92731; assay: phage ELISA, ICI 182,780 1 µM
[7] = molecular target: T2, ER β, Q92731; assay: phage ELISA, clomiphene 10 µM
[8] = molecular target: T2, ER β, Q92731; assay: phage ELISA, 4-OH tamoxifen 1 µM
[9] = molecular target: T3, ER α, P03372; assay: peptide probe binding to ERα, Buffer
T3 chain: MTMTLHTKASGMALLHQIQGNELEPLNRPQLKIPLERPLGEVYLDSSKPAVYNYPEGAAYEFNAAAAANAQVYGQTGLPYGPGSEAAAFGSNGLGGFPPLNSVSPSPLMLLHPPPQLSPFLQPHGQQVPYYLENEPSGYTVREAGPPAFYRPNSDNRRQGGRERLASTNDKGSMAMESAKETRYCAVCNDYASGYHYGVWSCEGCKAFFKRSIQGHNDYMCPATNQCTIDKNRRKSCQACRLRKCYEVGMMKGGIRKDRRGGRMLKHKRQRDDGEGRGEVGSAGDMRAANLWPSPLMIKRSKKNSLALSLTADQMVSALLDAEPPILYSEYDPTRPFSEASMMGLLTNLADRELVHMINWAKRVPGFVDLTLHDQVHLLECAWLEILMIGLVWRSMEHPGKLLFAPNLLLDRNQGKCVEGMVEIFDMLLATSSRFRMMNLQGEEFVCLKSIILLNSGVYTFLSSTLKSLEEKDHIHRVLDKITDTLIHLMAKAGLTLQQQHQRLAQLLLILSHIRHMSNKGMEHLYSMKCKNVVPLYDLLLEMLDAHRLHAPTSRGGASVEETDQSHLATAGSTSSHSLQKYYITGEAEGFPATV

[10] = molecular target: T3, ER α, P03372; assay: peptide probe binding to ERα, GW7604
[11] = molecular target: T2, ER β, Q92731; assay: peptide probe binding to ERβ, Buffer
[12] = molecular target: T3, ER α, P03372; assay: peptide probe binding to ERα, Estriol
[13] = molecular target: T2, ER β, Q92731; assay: peptide probe binding to ERβ, Estriol
[14] = molecular target: T2, ER β, Q92731; assay: peptide probe binding to ERβ, GW 7604
[15] = molecular target: T3, ER α, P03372; assay: peptide probe binding to ERα, Clomiphene
[16] = molecular target: T3, ER α, P03372; assay: peptide probe binding to ERα, Nafoxidine
[17] = molecular target: T3, ER α, P03372; assay: peptide probe binding to ERα, Raloxifene
[18] = molecular target: T3, ER α, P03372; assay: peptide probe binding to ERα, ICI 182,780
[19] = molecular target: T3, ER α, P03372; assay: peptide probe binding to ERα, 17α-Estradiol
[20] = molecular target: T3, ER α, P03372; assay: peptide probe binding to ERα, 17β-Estradiol
[21] = molecular target: T2, ER β, Q92731; assay: peptide probe binding to ERβ, 17α-Estradiol
[22] = molecular target: T2, ER β, Q92731; assay: peptide probe binding to ERβ, 17β-Estradiol
[23] = molecular target: T3, ER α, P03372; assay: peptide probe binding to ERα, 4-OH Tamoxifen
[24] = molecular target: T3, ER α, P03372; assay: peptide probe binding to ERα, Diethylstilbesterol
[25] = molecular target: T2, ER β, Q92731; assay: peptide probe binding to ERβ, Diethylstilbesterol
[26] = molecular target: T3, ER α, P03372; assay: peptide probe binding to ERα, all modulators

With EFQQCMCAEVKSWLGGSLDLOPS* [B8E9] the “Mammalian Cell Specificity Graph (FIG. 4): CYP.” value [1] was 16.02 Relative Light Units, the “Mammalian Cell Specificity Graph (FIG. 4): DHT” value ([1]; ligand DHT) was 19.64 Relative Light Units and the “Mammalian Cell Specificity Graph (FIG. 4): MPA” value ([1]; ligand MPA) was 18.51 Relative Light Units. The “Mammalian Cell Specificity Graph (FIG. 4): RU486” value ([1]; ligand RU486) was 10.1916 Relative Light Units, the “Mammalian Cell Specificity Graph (FIG. 4): no compound” value ([1]; no compound) was 0.2091 Relative Light Units and the “Binding to the androgen receptor in the presence of agonists and known antagonists” value ([2]; ligand present (agonists, known antagonists)) was “displays binding”. The “Binding to the androgen receptor in the absence of ligand” value ([2]; no ligand) was “not in the absence of ligand”, the Fold induction [3] was 4 and the “Yeast Specificity Graph (FIG. 3): CPA” value ([3]; ligand CPA) was 0.5635. The “Yeast Specificity Graph (FIG. 3): DHT” value ([3]; ligand DHT) was 1.75, the “Yeast Specificity Graph (FIG. 3): RU” value ([3]; ligand RU) was 0.8 and the “Yeast Specificity Graph (FIG. 3): No Lig” value ([3]; no ligand) was 0.4989.

For SAPRATISHYLMGG (modifications not checked) [α/β II], the Equiv. [4] was 0%.

SSNHQSSRLIELLSR (modifications not checked) [phage 4 (Table 2)] showed a phage ELISA grade [5] of 0, a phage ELISA grade [6] of 0 and a phage ELISA grade [7] of 0. It also gave a phage ELISA grade [8] of 0, an Equiv. [9] of 0% and an Equiv. [10] of 0%. It also gave an Equiv. [11] of 0%, an Equiv. [12] of 65% and an Equiv. [13] of 81%. It also gave an Equiv. [14] of 0%, an Equiv. [15] of 0% and an Equiv. [16] of 0%. The Equiv. [17] was 0%, the Equiv. [18] was 0% and the Equiv. [19] was 53%. The Equiv. [20] was 100%, the Equiv. [21] was 44% and the Equiv. [22] was 100%. The Equiv. [23] was 0%, the Equiv. [24] was 71% and the Equiv. [25] was 68%.

SRTWESPLGTWEWSR (modifications not checked) [#13 ER] showed an Equiv. [26] of 0%.
